Test results as given in publication PMC10690772.

Biological target: ConCv5 KIKO 473T SOSIP soluble gp140 Env trimer (HIV-1 (clade C consensus))
Assay: SEC; analytical size exclusion chromatography of 10 µg of the final purified protein pool

In the case of “ConCv5 KIKO 473T SOSIP soluble gp140 Env trimer (complex)”, the stoichiometry N is reported as 3.
